In PMC2203988:

Test system: U1A N-terminal RRM
Assay: EMSA
Conditions: 10 mM Tris-HCl pH 7.4, 250 mM NaCl, 1 mM EDTA, 0.5% Triton X-100, 1 mg/mL tRNA, 25 pM RNA, at least 45 min, gel at 25 C (A6P, A6c1A and A6G of Table 3 omitted: …)

Substance: A6I SL2 RNA
- Kd (loop A6 to inosine): 8000 nM

Substance: C10A SL2 RNA
- Kd: 0.6 nM

Substance: A1G/C10A SL2 RNA
- Kd: 1300 nM

Substance: G4DAP SL2 RNA
- Kd (loop G4 to 2,6-diaminopurine (DAP)): 2000 nM

Substance: A1G SL2 RNA
- Kd: 1400 nM

Substance: A1DAP SL2 RNA
- Kd (loop A1 to 2,6-diaminopurine (DAP)): 40 nM

Substance: G4A SL2 RNA
- Kd: 11000 nM

Substance: G4-2AP SL2 RNA
- Kd (loop G4 to 2-aminopurine): 4000 nM

Substance: A1c1A SL2 RNA
- Kd (loop A1 to 1-deazaadenosine (c1A)): 0.7 nM

Substance: A1I SL2 RNA
- Kd (loop A1 to inosine): 16 nM

Substance: A6-2AP SL2 RNA
- Kd (loop A6 to 2-aminopurine): 700 nM

Substance: G4c7dG SL2 RNA
- Kd (loop G4 to 7-deaza-2'-deoxyguanosine (c7dG)): 31 nM

Substance: A1P SL2 RNA
- Kd (loop A1 to purine (6-NH2 replaced by H)): 0.9 nM

Substance: WT SL2 RNA
- Kd: 0.3 nM

Substance: A6DAP SL2 RNA
- Kd (loop A6 to 2,6-diaminopurine (DAP)): 110 nM

Substance: A1-2AP SL2 RNA
- Kd (loop A1 to 2-aminopurine): 40 nM

Substance: G4dG SL2 RNA
- Kd (loop G4 to 2'-deoxyguanosine): 0.11 nM

Substance: G4I SL2 RNA
- Kd (loop G4 to inosine): 3 nM
